Laboratory results: PMC11617674 (2024)

Target: T1, GlnK (Escherichia coli (strain …, UniProt P0AC55,P0AC55,P0AC55))
T1 chain 1: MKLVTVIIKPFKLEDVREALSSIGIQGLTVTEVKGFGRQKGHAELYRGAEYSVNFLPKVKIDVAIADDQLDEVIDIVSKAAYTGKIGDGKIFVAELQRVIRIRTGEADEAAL
T1 chain 2: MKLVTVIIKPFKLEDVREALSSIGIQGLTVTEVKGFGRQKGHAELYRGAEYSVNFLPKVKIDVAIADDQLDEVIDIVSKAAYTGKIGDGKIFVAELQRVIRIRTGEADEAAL
T1 chain 3: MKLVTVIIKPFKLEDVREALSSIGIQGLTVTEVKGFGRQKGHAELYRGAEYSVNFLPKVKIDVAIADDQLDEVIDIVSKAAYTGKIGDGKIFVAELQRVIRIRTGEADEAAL
Assay: BLI (His-PII trimer on sensor), ADP

B1: UmpH (protein)
chain: MTIKNVICDIDGVLMHDNVAVPGAAEFLHGIMDKGLPLVLLTNYPSQTGQDLANRFATAGVDVPDSVFYTSAMATADFLRRQEGKKAYVVGEGALIHELYKAGFTITDVNPDFVIVGETRSYNWDMMHKAAYFVANGARFIATNPDTHGRGFYPACGALCAGIEKISGRKPFYVGKPSPWIIRAALNKMQAHSEETVIVGDNLRTDILAGFQAGLETILVLSGVSSLDDIDSMPFRPSWIYPSVAEIDVI
Kd: 7.8 nM
